For one molecule, Kd results are on record in article PMC12700824 (2025).

The target of the experiment is FAM118B24–334-F122R (human, UniProt Q9BPY3 24-334, F122R). Nature of the experiment: ITC.

B1: FAM118B24–334-L32R (domain or fragment)
chain: PTKKPRKLRPSLKTKKPRELVLVIGTGISAAVAPQVPALKSWKGLIQALLDAAIDFDLLEDEESKKFQKCLHEDKNLVHVAHDLIQKLSPRTSNVRSTFFKDCLYEVFDDLESKMEDSGKQLLQSVLHLMENGALVLTTNFDNLLELYAADQGKQLESLDLTDEKKVLEWAQEKRKLSVLHIHGVYTNPSGIVLHPAGYQNVLRNTEVMREIQKLYENKSFLFLGCGWTVDDTTFQALFLEAVKHKSDLEHFMLVRRGDVDEFKKLRENMLDKGIKVISYGDDYADLPEYFKRLTCEISTRGTSAGMVREG
For the molecule B1, the Kd was determined as 233 nM.
